Test results published in patent publication EP4671273A1.

Legend:
[1] = molecular target: hPD-1 expressed on Jurkat cells (human) (UniProt Q15116); assay: flow cytometry on Jurkat PD-1 cells, competitor nivolumab at 100x molar excess
[2] = molecular target: hPD-1 expressed on Jurkat cells (human) (UniProt Q15116); assay: flow cytometry on Jurkat PD-1 cells, competitor pembrolizumab at 100x molar excess

Sequence of hPD-1 expressed on Jurkat cells (human) (Q15116 25-288): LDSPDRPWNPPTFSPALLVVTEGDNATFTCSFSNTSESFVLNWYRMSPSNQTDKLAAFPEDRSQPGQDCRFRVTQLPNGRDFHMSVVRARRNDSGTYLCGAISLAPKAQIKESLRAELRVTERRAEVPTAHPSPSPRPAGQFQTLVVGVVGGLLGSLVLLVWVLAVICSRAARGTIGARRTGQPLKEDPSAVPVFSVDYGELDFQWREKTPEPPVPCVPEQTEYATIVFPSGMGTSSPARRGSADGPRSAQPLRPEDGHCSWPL

B1: XVT458-z2-m6 (antibody, human IgG1, V domains shown)
VH: VQLVQSGAEVKKPGASVKVSCKASGYTFTNFYIHWVRQAPGQGLEWMGSIYPNYGITAYNQKFKDRVTMTVDTSTSTAYMELRSLRSDDTAVYYCARGYSYAMDYWGQGTTVTVSS
VL: DIQMTQSPSSVSASVGDRVTITCSASQGISGDLNWYQQKPGKAPKLLIYHTSQLHSDVPSRFSGSGSGTDFTLTISSLQPEDFATYYCQGYSKDLLTFGGGTKLEIK
B1 gave a signal inhibition in % [1] of 8.66% and a signal inhibition in % [2] of 8.66%.
